Results on two substances are retold here after PMC5601999.

As usually defined, the stoichiometry N is the number of molecules, sites or subunits per partner or assembly.

Test [1] deals with FGF2-Y81pCMF-GFP (human). As to the kind of experiment: z-scan fluorescence correlation spectroscopy (brightness analysis); protein on single GUVs with a plasma membrane-like lipid composition containing PI(4,5)P2, pre-incubated at least 30 min; average oligomeric state = cluster brightness / monomer brightness; GUVs containing membrane pores, protein surface concentration larger than 0.4 nmol/m^2.

The target in test [2] is FGF2-Y81pCMF-GFP (human). The test can be described thus: z-scan fluorescence correlation spectroscopy (brightness analysis); as a2; GUVs containing membrane pores, protein surface concentration smaller than 0.4 nmol/m^2.
Test [3] has as its target FGF2-Y81pCMF-GFP (human). As to the kind of experiment: z-scan fluorescence correlation spectroscopy (brightness analysis); as a2; GUVs without membrane pores, protein surface concentration ≤0.4 nmol/m^2.

For FGF2-Y81pCMF-GFP, the values for the stoichiometry N (average oligomeric state) in test [1], in test [2] and in test [3] were 9.23, 5.24 and 5.22, respectively.

Regarding FGF2-Y81pCMF-GFP (natural protein), the stoichiometry N in test [1] was in the range of 8 to 12 subunits.
